Assay results published in PMC9482650, “Quantitative fragmentomics allow affinity mapping of interactomes” (Nature Communications, 2022).

Experiments:
Experiment in all cases: holdup assay
Design in all cases: key: below the threshold = too weak to quantify, mostly under pKd 3.1 to 4
[1] = molecular target: DLG1_2, Q12959
[2] = molecular target: T1, LIN7A, O14910
T1 sequence (O14910 103-200, limits assumed, looked up): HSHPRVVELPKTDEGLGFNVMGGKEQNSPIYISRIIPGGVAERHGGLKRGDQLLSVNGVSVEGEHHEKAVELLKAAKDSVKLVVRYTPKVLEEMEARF

[3] = molecular target: FRMPD2_3, Q68DX3
[4] = molecular target: T2, CARD11, Q9BXL7
T2 sequence (Q9BXL7 662-765, limits assumed, looked up): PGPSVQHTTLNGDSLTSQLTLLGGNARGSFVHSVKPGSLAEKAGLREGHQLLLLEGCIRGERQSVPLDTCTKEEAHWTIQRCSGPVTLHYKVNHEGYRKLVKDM

[5] = molecular target: T3, SYNJ2BP, P57105
T3 sequence (P57105 8-110, limits assumed, looked up): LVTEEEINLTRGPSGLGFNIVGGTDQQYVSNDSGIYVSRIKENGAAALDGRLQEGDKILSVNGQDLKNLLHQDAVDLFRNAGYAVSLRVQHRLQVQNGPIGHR

[6] = molecular target: T4, MPP7, Q5T2T1
T4 sequence (Q5T2T1 134-230, limits assumed, looked up): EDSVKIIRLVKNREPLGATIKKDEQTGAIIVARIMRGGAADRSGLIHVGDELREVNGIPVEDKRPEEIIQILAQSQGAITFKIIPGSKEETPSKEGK

[7] = molecular target: SNX27, Q96L92
[8] = molecular target: MAST1, Q9Y2H9
[9] = molecular target: T5, GRIP1_4, Q9Y3R0
T5 sequence (Q9Y3R0 467-571, limits assumed, looked up): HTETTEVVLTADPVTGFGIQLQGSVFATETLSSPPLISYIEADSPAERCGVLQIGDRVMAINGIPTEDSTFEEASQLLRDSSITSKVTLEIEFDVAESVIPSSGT

[10] = molecular target: GRID2IP_2, A4D2P6
[11] = molecular target: NHERF4_1, Q86UT5-2
[12] = molecular target: T6, GRIP1_7, Q9Y3R0
T6 sequence (Q9Y3R0 999-1096, limits assumed, looked up): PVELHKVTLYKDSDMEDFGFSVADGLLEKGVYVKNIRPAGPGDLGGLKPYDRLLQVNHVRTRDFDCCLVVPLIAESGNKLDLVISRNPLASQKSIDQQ

[13] = molecular target: NHERF4_2, Q86UT5
[14] = molecular target: GRIP2_4, Q9C0E4
[15] = molecular target: Inadl_2, Q8NI35
[16] = molecular target: T7, PDZD7_3, Q9H5P4
T7 sequence (Q9H5P4 857-944, limits assumed, looked up): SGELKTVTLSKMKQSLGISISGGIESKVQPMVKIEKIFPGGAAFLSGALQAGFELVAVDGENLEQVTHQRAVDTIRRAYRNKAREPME

[17] = molecular target: GRIP2_7, Q9C0E4
[18] = molecular target: DLG4_3, P78352
[19] = molecular target: FRMPD2_1, Q68DX3
[20] = molecular target: NHERF4_4, Q86UT5
[21] = molecular target: MAGI1_2, Q96QZ7
[22] = molecular target: DLG4_2, P78352
[23] = molecular target: T8, SNTG2, Q9NY99
T8 sequence (Q9NY99 68-166, limits assumed, looked up): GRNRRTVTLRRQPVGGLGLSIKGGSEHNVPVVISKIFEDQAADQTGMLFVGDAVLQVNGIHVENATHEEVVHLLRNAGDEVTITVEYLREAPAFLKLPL

[24] = molecular target: HTRA2, O43464
[25] = molecular target: IL16_1, Q14005
[26] = molecular target: IL16_3, Q14005
[27] = molecular target: T9, DVL3, Q92997
T9 sequence (Q92997 244-331, limits assumed, looked up): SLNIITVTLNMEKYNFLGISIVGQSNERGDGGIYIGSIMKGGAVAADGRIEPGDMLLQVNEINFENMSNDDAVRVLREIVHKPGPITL

[28] = molecular target: T10, GRIP1_3, Q9Y3R0
T10 sequence (Q9Y3R0 247-346, limits assumed, looked up): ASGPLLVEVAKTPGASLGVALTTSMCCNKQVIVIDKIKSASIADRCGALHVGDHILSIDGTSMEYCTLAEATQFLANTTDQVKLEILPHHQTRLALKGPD

[29] = plain residues with an end cap or a label only (N-terminal biotin on a linker: (peg)3)
[30] = plain residues with an end cap or a label only (N-terminal biotin on a linker: ado-ado)

MAST1, Q9Y2H9, sequence (Q9Y2H9 962-1065): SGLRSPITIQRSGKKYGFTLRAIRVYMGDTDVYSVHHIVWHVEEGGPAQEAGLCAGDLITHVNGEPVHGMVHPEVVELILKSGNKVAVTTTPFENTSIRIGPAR
GRIP2_4, Q9C0E4, sequence (Q9C0E4 446-548): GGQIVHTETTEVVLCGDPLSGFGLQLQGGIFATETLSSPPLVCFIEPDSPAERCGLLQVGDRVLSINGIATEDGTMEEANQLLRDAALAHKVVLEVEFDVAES
MAGI1_2, Q96QZ7, sequence (Q96QZ7 456-580): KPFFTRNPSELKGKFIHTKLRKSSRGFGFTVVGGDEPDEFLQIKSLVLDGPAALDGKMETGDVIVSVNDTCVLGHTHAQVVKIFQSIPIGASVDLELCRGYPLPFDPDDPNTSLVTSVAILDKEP
GRID2IP_2, A4D2P6, sequence (A4D2P6 272-370): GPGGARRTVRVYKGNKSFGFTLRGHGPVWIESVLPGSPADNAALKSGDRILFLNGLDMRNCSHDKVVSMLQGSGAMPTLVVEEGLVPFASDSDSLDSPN
FRMPD2_3, Q68DX3, sequence (Q68DX3 1073-1166): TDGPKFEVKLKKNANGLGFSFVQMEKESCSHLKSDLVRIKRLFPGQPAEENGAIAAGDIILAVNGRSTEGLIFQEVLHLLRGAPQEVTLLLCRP
GRIP2_7, Q9C0E4, sequence (Q9C0E4 934-1023): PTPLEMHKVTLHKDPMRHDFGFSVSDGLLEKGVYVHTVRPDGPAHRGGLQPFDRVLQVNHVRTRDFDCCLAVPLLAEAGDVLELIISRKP
NHERF4_2, Q86UT5, sequence (Q86UT5 220-308): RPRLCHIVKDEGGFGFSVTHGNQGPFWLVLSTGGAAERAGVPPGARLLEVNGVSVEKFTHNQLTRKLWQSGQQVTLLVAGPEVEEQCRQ
DLG4_2, P78352, sequence (P78352 155-259): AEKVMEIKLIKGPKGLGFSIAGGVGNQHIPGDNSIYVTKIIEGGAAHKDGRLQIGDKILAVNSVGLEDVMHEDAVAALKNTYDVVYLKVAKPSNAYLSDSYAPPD
NHERF4_1, Q86UT5-2, sequence (Q86UT5 other isoform, or with tags, fused parts or gaps): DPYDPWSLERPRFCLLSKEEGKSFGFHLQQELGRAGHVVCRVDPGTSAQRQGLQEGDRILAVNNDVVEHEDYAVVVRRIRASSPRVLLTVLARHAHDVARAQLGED
DLG4_3, P78352, sequence (P78352 306-403): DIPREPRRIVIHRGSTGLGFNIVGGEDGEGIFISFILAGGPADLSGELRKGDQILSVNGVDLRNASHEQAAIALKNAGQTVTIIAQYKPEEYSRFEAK
IL16_1, Q14005, sequence (Q14005 210-306): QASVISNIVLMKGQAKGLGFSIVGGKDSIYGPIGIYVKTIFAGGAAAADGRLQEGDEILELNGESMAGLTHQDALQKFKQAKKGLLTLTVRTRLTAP
HTRA2, O43464, sequence (O43464 355-458): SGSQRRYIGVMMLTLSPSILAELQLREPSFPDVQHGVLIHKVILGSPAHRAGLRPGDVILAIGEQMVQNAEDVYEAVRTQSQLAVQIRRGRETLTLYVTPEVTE
Inadl_2, Q8NI35, sequence (Q8NI35 238-335): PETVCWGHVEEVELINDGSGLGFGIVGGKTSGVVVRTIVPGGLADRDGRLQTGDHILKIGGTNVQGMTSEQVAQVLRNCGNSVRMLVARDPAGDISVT
NHERF4_4, Q86UT5, sequence (Q86UT5 464-550): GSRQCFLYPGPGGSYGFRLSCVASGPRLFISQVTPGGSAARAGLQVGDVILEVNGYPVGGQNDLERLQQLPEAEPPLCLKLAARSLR
FRMPD2_1, Q68DX3, sequence (Q68DX3 770-861): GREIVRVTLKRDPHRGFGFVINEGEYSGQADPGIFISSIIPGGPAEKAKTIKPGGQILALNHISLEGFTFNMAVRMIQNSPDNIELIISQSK
IL16_3, Q14005, sequence (Q14005 1107-1207): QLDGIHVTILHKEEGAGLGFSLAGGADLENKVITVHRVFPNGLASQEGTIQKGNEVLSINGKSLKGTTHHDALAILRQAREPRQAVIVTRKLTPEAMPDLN
DLG1_2, Q12959, sequence (Q12959 314-412): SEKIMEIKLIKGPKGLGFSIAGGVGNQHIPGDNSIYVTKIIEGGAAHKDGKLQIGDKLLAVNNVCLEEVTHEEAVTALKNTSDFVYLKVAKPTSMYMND

## RRRRSQSRESQC [HBV-HBc, P03193]
[1]; [29]
  pKd: 4.58
[2]; [29]
  pKd: below the threshold
[3]; [29]
  pKd: below the threshold
[4]; [29]
  pKd: below the threshold
[5]; [29]
  pKd: 4.59
[6]; [29]
  pKd: below the threshold
[7]; [29]
  pKd: 4.76
[8]; [29]
  pKd: 3.92
[9]; [29]
  pKd: below the threshold
[10]; [29]
  pKd: below the threshold
[11]; [29]
  pKd: 3.86
[12]; [29]
  pKd: below the threshold
[13]; [29]
  pKd: below the threshold
[14]; [29]
  pKd: below the threshold
[15]; [29]
  pKd: below the threshold
[16]; [29]
  pKd: below the threshold
[17]; [29]
  pKd: below the threshold
[18]; [29]
  pKd: 4.58
[19]; [29]
  pKd: below the threshold
[20]; [29]
  pKd: below the threshold
[21]; [29]
  pKd: 4.07
[22]; [29]
  pKd: 4.3
[23]; [29]
  pKd: 4.21
[24]; [29]
  pKd: below the threshold
[25]; [29]
  pKd: below the threshold
[26]; [29]
  pKd: below the threshold
[27]; [29]
  pKd: below the threshold
[28]; [29]
  pKd: below the threshold

## DRIQSCLSDA [SBF1, O95248]
[1]; [30]
  pKd: below the threshold
[2]; [30]
  pKd: below the threshold
[3]; [30]
  pKd: below the threshold
[4]; [30]
  pKd: below the threshold
[5]; [30]
  pKd: below the threshold
[6]; [30]
  pKd: below the threshold
[7]; [30]
  pKd: below the threshold
[8]; [30]
  pKd: 3.62
[9]; [30]
  pKd: below the threshold
[10]; [30]
  pKd: below the threshold
[11]; [30]
  pKd: below the threshold
[12]; [30]
  pKd: below the threshold
[13]; [30]
  pKd: below the threshold
[14]; [30]
  pKd: below the threshold
[15]; [30]
  pKd: below the threshold
[16]; [30]
  pKd: below the threshold
[17]; [30]
  pKd: below the threshold
[18]; [30]
  pKd: below the threshold
[19]; [30]
  pKd: below the threshold
[20]; [30]
  pKd: below the threshold
[21]; [30]
  pKd: below the threshold
[22]; [30]
  pKd: below the threshold
[23]; [30]
  pKd: below the threshold
[24]; [30]
  pKd: below the threshold
[25]; [30]
  pKd: below the threshold
[26]; [30]
  pKd: below the threshold
[27]; [30]
  pKd: below the threshold
[28]; [30]
  pKd: below the threshold

## AEASVACSLC [PTGIR, P43119]
[1]; [30]
  pKd: below the threshold
[2]; [30]
  pKd: below the threshold
[3]; [30]
  pKd: below the threshold
[4]; [30]
  pKd: below the threshold
[5]; [30]
  pKd: below the threshold
[6]; [30]
  pKd: below the threshold
[7]; [30]
  pKd: 4.4
[8]; [30]
  pKd: below the threshold
[9]; [30]
  pKd: below the threshold
[10]; [30]
  pKd: 3.77
[11]; [30]
  pKd: 4.54
[12]; [30]
  pKd: below the threshold
[13]; [30]
  pKd: below the threshold
[14]; [30]
  pKd: below the threshold
[15]; [30]
  pKd: below the threshold
[16]; [30]
  pKd: 4.47
[17]; [30]
  pKd: below the threshold
[18]; [30]
  pKd: below the threshold
[19]; [30]
  pKd: below the threshold
[20]; [30]
  pKd: below the threshold
[21]; [30]
  pKd: below the threshold
[22]; [30]
  pKd: below the threshold
[23]; [30]
  pKd: below the threshold
[24]; [30]
  pKd: 3.78
[25]; [30]
  pKd: below the threshold
[26]; [30]
  pKd: below the threshold
[27]; [30]
  pKd: below the threshold
[28]; [30]
  pKd: below the threshold

## SFISKKEWYV [NECTIN1, Q15223]
[1]; [30]
  pKd: 3.77
[2]; [30]
  pKd: below the threshold
[3]; [30]
  pKd: 4.31
[4]; [30]
  pKd: below the threshold
[5]; [30]
  pKd: below the threshold
[6]; [30]
  pKd: 5.11
[7]; [30]
  pKd: below the threshold
[8]; [30]
  pKd: 3.95
[9]; [30]
  pKd: below the threshold
[10]; [30]
  pKd: below the threshold
[11]; [30]
  pKd: below the threshold
[12]; [30]
  pKd: 5.06
[13]; [30]
  pKd: below the threshold
[14]; [30]
  pKd: below the threshold
[15]; [30]
  pKd: 4.8
[16]; [30]
  pKd: below the threshold
[17]; [30]
  pKd: 5.62
[18]; [30]
  pKd: below the threshold
[19]; [30]
  pKd: 4.22
[20]; [30]
  pKd: below the threshold
[21]; [30]
  pKd: 4.28
[22]; [30]
  pKd: 3.73
[23]; [30]
  pKd: 3.49
[24]; [30]
  pKd: 4.2
[25]; [30]
  pKd: below the threshold
[26]; [30]
  pKd: below the threshold
[27]; [30]
  pKd: 4.51
[28]; [30]
  pKd: below the threshold

## LKDDELKTKL [SLCO1A2, P46721]
[1]; [30]
  pKd: below the threshold
[2]; [30]
  pKd: below the threshold
[3]; [30]
  pKd: below the threshold
[4]; [30]
  pKd: below the threshold
[5]; [30]
  pKd: below the threshold
[6]; [30]
  pKd: below the threshold
[7]; [30]
  pKd: 3.8
[8]; [30]
  pKd: 4.64
[9]; [30]
  pKd: below the threshold
[10]; [30]
  pKd: 4.55
[11]; [30]
  pKd: 3.91
[12]; [30]
  pKd: below the threshold
[13]; [30]
  pKd: below the threshold
[14]; [30]
  pKd: below the threshold
[15]; [30]
  pKd: below the threshold
[16]; [30]
  pKd: 4.43
[17]; [30]
  pKd: below the threshold
[18]; [30]
  pKd: below the threshold
[19]; [30]
  pKd: below the threshold
[20]; [30]
  pKd: below the threshold
[21]; [30]
  pKd: below the threshold
[22]; [30]
  pKd: below the threshold
[23]; [30]
  pKd: below the threshold
[24]; [30]
  pKd: below the threshold
[25]; [30]
  pKd: below the threshold
[26]; [30]
  pKd: below the threshold
[27]; [30]
  pKd: below the threshold
[28]; [30]
  pKd: below the threshold
